Experimental data published in patent CN114573698A (dated 2022).
Values joined by “and” are separate entries in the source; they are usually repeats but may differ in a detail not shown here. Equal entries are not always repeated.

B1: SPGA01-102 (antibody, V domains shown)
VH: QIQLVQSGPELKKPGETVKISCKASGYTFTNHGMNWLKQAPGKDLKWMGWINTYTGEPTYEDDFKGRFAFSLETSASTVYLQINNLKNEDTATYFCAREEIYGNYYYTMDYWGQGTSVTVSS
VL: DIQMTQTTSSLSASLGDRVTISCSASQGISKYLNWYQQKPDGTVKLLIYYTSILHSGVPSRFSGSGSGTDYSLTISNLEPEDIATYFCQQYSKLPPTFGGGTKLEIT
notes: Mouse monoclonal antibody from a hybridoma, purified on Protein G and detected with anti-mouse IgG; also called 鼠源抗人FcRn单克隆抗体
B2: SPGA01-ch102 (antibody, human IgG4 S228P, kappa)
heavy: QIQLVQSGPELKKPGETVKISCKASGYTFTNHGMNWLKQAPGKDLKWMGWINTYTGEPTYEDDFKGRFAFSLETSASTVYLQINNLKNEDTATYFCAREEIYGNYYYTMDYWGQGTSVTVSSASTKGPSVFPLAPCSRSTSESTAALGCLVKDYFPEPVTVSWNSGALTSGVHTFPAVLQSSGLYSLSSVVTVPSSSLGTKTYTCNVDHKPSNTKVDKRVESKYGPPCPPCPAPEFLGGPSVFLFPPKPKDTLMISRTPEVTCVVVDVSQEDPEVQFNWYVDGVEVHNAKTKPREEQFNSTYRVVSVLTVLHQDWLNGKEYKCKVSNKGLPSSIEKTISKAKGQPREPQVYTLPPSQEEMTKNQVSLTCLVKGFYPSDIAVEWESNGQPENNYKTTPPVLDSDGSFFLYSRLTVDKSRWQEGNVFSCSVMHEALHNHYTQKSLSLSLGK
light: DIQMTQTTSSLSASLGDRVTISCSASQGISKYLNWYQQKPDGTVKLLIYYTSILHSGVPSRFSGSGSGTDYSLTISNLEPEDIATYFCQQYSKLPPTFGGGTKLEITRTVAAPSVFIFPPSDEQLKSGTASVVCLLNNFYPREAKVQWKVDNALQSGNSQESVTEQDSKDSTYSLSSTLTLSKADYEKHKVYACEVTHQGLSSPVTKSFNRGEC
notes: also called 嵌合抗体SPGA01-ch102; SPGA1-ch102
B3: SPGA01-ch102mu (antibody, human IgG4 S228P, kappa)
heavy: QIQLVQSGPELKKPGETVKISCKASGYTFTNHGMNWLKQAPGKDLKWMGWINTYTGEPTYEDDFKGRFAFSLETSASTVYLQINNLKNEDTATYFCAREEIYGNYYYTMDYWGQGTSVTVSSASTKGPSVFPLAPCSRSTSESTAALGCLVKDYFPEPVTVSWNSGALTSGVHTFPAVLQSSGLYSLSSVVTVPSSSLGTKTYTCNVDHKPSNTKVDKRVESKYGPPCPPCPAPEFLGGPSVFLFPPKPKDTLYITREPEVTCVVVDVSQEDPEVQFNWYVDGVEVHNAKTKPREEQFNSTYRVVSVLTVLHQDWLNGKEYKCKVSNKGLPSSIEKTISKAKGQPREPQVYTLPPSQEEMTKNQVSLTCLVKGFYPSDIAVEWESNGQPENNYKTTPPVLDSDGSFFLYSRLTVDKSRWQEGNVFSCSVMHEALKFHYTQKSLSLSLGK
light: B2 light
notes: also called 突变的嵌合抗体SPGA01-ch102mu

Assays:
α2-Fc = target: T1, α2-Fc (human); test: Western blot on domain-Fc fusion
T1 construct: no linker is mentioned; also called FcRn功能结构域α2与人Fc融合蛋白; FcRnα2
T1 chain: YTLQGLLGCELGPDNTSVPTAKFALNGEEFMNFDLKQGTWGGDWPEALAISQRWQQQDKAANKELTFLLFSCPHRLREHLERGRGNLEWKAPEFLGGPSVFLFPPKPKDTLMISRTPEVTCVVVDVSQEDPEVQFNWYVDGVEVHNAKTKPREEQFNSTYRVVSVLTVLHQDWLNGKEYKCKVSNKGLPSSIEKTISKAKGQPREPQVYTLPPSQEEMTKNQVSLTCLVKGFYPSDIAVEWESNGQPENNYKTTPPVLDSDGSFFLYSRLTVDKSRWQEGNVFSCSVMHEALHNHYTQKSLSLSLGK

[1] = target: T2, 人FcRn(β2M)-His蛋白 (human FcRn-ECD) (human, UniProt P61769 21-119); test: blocking ELISA pH 6.0, human IgG-biotin on plate-bound human FcRn-ECD (method of Example 4)
T2 construct: Bought protein (Acro FCM-H5286); also called 人FcRn-ECD; FcRn-His

[2] = target: T2, 人FcRn(β2M)-His蛋白 (human FcRn-ECD); test: indirect ELISA, plate-bound human FcRn-ECD (method of Example 2.1)
[3] = target: T2, 人FcRn(β2M)-His蛋白 (human FcRn-ECD); test: blocking ELISA, human IgG on plate-bound human FcRn-ECD

T2 sequence (chain, as listed by the source limits assumed, chain 1 of 2): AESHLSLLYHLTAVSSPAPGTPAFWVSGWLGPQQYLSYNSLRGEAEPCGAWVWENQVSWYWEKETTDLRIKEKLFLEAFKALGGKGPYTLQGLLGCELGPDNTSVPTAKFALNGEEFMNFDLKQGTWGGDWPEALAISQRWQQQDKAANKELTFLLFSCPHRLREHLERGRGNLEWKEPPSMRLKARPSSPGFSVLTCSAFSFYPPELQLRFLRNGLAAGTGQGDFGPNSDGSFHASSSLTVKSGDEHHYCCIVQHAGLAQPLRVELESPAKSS
T2 sequence (P61769 21-119 limits assumed, chain 2 of 2): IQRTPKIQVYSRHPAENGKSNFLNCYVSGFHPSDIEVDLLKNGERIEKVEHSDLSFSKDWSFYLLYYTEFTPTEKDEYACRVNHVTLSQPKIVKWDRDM

Row | Binder | binding result (α2-Fc) | IC50 [1] | EC50 [2] | IC50 [3]
1 | B1 | binds | – | – | –
2 | B2 | – | 0.0514 µg/mL and 0.34 nM | 0.00973 µg/mL and 0.06 nM | –
3 | B3 | – | – | 0.00976 µg/mL and 0.06 nM | 0.0122 µg/mL and 0.08 nM
